This data set can be described thus: label from the status in PepcDB records.

Take “MAMSFSGAVLTGMASSFHSGAKQSSFGAVRVGQKTQFVVVSQRKKSLIYAAKGDGNILDDLNEATKKASDFVTDKTKEALADGEKAKDYVVEKNSETADTLGKEAEKAAAYVEEKGKEAANKAAEFAEGKAGEAKDATK”: the protein production result is “failed”.

With “MAMVSGRRSTLNPDAPLFIPAAVRQVEDFSPEWWQLVTTSTWYPDYWISQQQQGADGFYDNGENENGGGHIDVADLLPESFDFDDMEDFFDTDAAEFDQGFDGRMYYQAPSEFGFGKNGEMVKKSSGNRSPRSIVEPAKYAEKPAKWGNQRVAAAPRNIHQPR”, the protein production entry was “failed”.

On to “MANAIRLPPEAYPMSIAAQKNDDDRQARALAALAEKPDGIVEAIAAKAEVAPAEILAILPQGAAVSAPADRFDAIWNEMRGWGEILMIVQTGDIVLEVPGHLPEGTESHGWFNIHGDSPIGGHIKKDNCAAITFVDRGFHGRRSCSVWFMNAAGGAMFKIFVRRDENKELLAGQLAKFEELRDGFRGLEHHHHHH”, for which the protein production entry is reported as “not failed”.

With “MANATFSADKLKQLTLQITKLARVAGDFQINELKNFERSNIEHKGRSNDLVSYVDKETEKLLIESLTKLVPEAGFETEEGTVEQTQSGLRWIIDPLDGTTNFLHKLPLFSISIALVQDETLLIGVVHEPSRNECFYAWKNGGAYMNGERIETSSITEISDALIATGFPYSLRGKSDQYFTLIRHFVETTHGVRRLGSAAIDLCYVACGRFEAYFEFNLKPWDVAAGILIVREAGGIVSNYSGGDDHCQTAEEVCAAGRHIHPLMIDTFKKIW”, the protein production entry is “failed”.

Turning to “MANCFAPQLTFPSFSPRHFSPRMSHQSPKPSTSTTTSIFTSATKLLWGPSLPPGLLISTARTAWTTVWQLMMTQLAPSDSSGSYTRPTSKFRLDPTQFTSAASSELHLYVGLPCPWAHRTLIVRALKGLNDAVPVSIASPGQDGSWEFKNNNIPIKDKDKLIPSLDKANRCRNLKEVYKSRSGGYDGRCTVPMLWDLRKKDVVCNESYDIIEFFNSGLNKLARNDNLDLSPPELKEMIQGWNQIVYPKVNNGVYRCGFAQSQEAYDGAVNELFSTLDEIEDHLGSNRYLCGERLTLADVCLFTTLIRFDSVYNILFKCTKKKLVEYPNLYGYLREIYQIPGVAATCDISAIMDGYYKTLFPLNASGIQPAISSSGDQDSLWRPHNRDLVGKAIEAQLSV”, the protein production entry is “failed”.

For “MANDGATVFWLSFLAIILGFLSWKFKKIGGISLIAISIYGLFVNGLFFIFAFVFLMIAGILSFKIKPTSPKDVKIAN”, the protein production entry is given as “failed”.

For “MANDGYFEPTQELSDETRDMHRAIISLREELEAVDLYNQRVNACKDKELKAILAHNRDEEKEHAAMLLEWIRRCDPAFDKELKDYLFTNKPIAHE”, the protein production entry was “not failed”.

Turning to “MANFKVVVSDPKEARAYQIDIKDAEANALIGKSIGDVVDGSIFGLAGYKVQITGGCDGSGFVMKPDLPGPRRQRILTATGVGYVPKLPGQRRRKMMRGKEIAPDIVQVNAKVVEYGSKSIKALLGLETAEEAPAAELEHHHHHH”, the protein production entry is listed as “not failed”.

Consider “MANGPGCACPRCGAPRASGPECPRCGVIYAKARARAAPSPAPSGPGTSLPDPGAAGLALGMPARARWSGELDGARRELWIRAVAPPAALLLALALVSSGPGHALLRTFLSMWIHELGHAVTAWLCGHGAFPGPWRTPISSGRLPLVVIAVSGALAALAWRGWRSGRRAILAAGAAGLGVQLVCTLLPATTARALITFGGDAGCMVIGAALVATIWADPEGPLGRGSLRWGFLVIGAAALVDALHGWVRAWRDPGELPLGEIEGVGLSDASTLMQVHRWSASALSGRYVALGLACLAALGATYAVMLARARGAVAAERRAA”, for which the protein production result is reported as “failed”.

Turning to “MANGTTPSVGIALGSGAAKGWAHIGVLNGLAAMGIKPDKVAGCSVGALVGAAYAHDHLPELEEWVRSFSSWDVLGLMDIRWRKGGLIGGDKVFDVLQARIGDVNIENLNRPFAAVATDLYSGQEIWFTEGDLRQAVRASCSMPGILAPVRQGDRWLVDGAVVNPVPVSVSRAMGVDVVIAVDLYGYHSGRIQVLPVSMTSQKNVEAEMDMSARQETGFMDLFARGRDYVSNLTDKFSLGTKSNPGMIAVMSQSMGILEQRHKRARLMGDPPDICIVPEVGNIGTMEFHRADEAIAAGEAAVEKVAHLIEAALWKG”, the protein production result is “not failed”.

As for “MANHVSLILPPLSLYIHIPWCVQKCPYCDFNSHTQKGTIPEAEYIQHLLADLSQDLVTYKTAIANRKIHSIFIGGGTPSLFSAEAIAYLLAEIKQRIAFAPKIEITLEANPGTAEAERFICYTEAGINRISMGIQSFEEEKLRKLGRIHDAHEAKQAVYFAKNALISPSRTVGLHSFNLDLMHGLPNQTLEQALADLNTAISLNPPHFSWYQLTIEPNTMFYYRQPTLPDDDELWAIFEQGHQLLTMAGYQQYETSAYAKQGFQCQHNLNYWRFGDYLAIGCGAHGKISYPSGEIYRFSKTKHPKGYMRGDYRDSQQSIQLDDRPFEFFMNRFRLLEPTPKQEFECYTGLDCERVRPTIDWALNKHYISETSTTWQVTQKGKLFLNELLAGFLTLEHHHHHH”, the protein production result is recorded as “failed”.

“MANVAIIGTEKSGRTSLAANLGKKGTSSDITMYNNDKEGRNMVFVDAHSYPKTLKSLITALNISDIAVLCIPPQGLDAHTGECIIALDLLGFKHGIIALTRSDSTHMHAIDELKAKLKVITSGTVLQDWECISLNTNKSAKNPFEGVDELKARINEVAEKIEAENAELNSLPARIFIDHAFNVTGKGCVVLGVVKQGISKDKDKTKIFPLDRDIEIRSIQSHDVDIDSAPAGTRVGMRLKNVQAKDIERGFIISDKEIVTTDYTLECTVSKFTKKIEPASVLHLFVGLQSEPVRVEKILVDGNEVEEAKPGSTCVLELSGNKKLAYSKQDRFLLANLDLTQRFAAYGFSK”: the protein production entry is on record as “not failed”.

As for “MANVDRRQMLLLSGLGATAAVLPVPRAAAVPNQTAASYVFADEFDGPAGSAPSAAKWTIAKARETIQDPTYWEQPGRIGQYRNDRRNVFLDGKSNLVIRAAKDGDTYYSAKLASVWEGGAGHTWEARIKFNCLTAGAWPAFWLGNTGEGELDIIEWYGNGSWPSATTVHAKSNGGEWKTHNIAVDNGWHRWRTQWDAEGARFWLDYTDGAQPYFEVAASSLPDWPFDQPGYTMFVVLNLAVAGSGGGDPSGGTYPADMLVDWVRVW”, the protein production entry is recorded as “not failed”.

“MAPCLENVACVNLSAMPPAPPSPQPVSHKQAATLCRQGRTCALKSGSNESGGSVTSTYTSYRLISQDIGKSLERVSKQPDVARETEYYREKIGSVKSIDDFMADTRLYNYALKAHGLEDMAYAKAFIRKVLTEGASDKNAFANKLSDNRYAELAKSLDFAGLGAAATATEAAKSGVIGNYARQTLEQEAGDDNNGVRLALYFERKAPTIKSGLDFLADDALAQVFRTTFNLPDAFAAADVDKQAALIEKSINIKDLQDPEKVGKLLERFTIMWEMQNPSTTYDPLAVFGSSSGYGISPDLLISINSLKLGGKLEHHHHHH”: the protein production entry is recorded as “not failed”.

Consider “MAPDLSGTWYVLEGDPGEHLVVEALGERLSGIWTSRELAEAFLAHHPHLGMRVSALESRALKEAYLRALGMLQVEAVMVDYRPGTHRAQVARVKDLLEEVRRA”, for which the protein production entry is “not failed”.

As for “MAPFTLYTHAGPGPNPVKVAMALEHLGLDYDCIPLAFGEGKGTVKDPEYTSKVNPNGRVPGLIDHENNDFTVFESAAILQYLAEKTIQYDTSGKLAGSTPEERATVNKWLAWQVSGLGPYQGQLVWFLAFHEGAHGEKPNGSVIARYQAEVERLRSVLEKHLASAENGFVALGRLTIADFAILPWLKISVLAGSALKSFEEYPAINAYIKKLDALPEVQAAYKKAVPPMQ”, the protein production entry is “failed”.

For “MAPLDSKSAGGEPGVWKSGRGRGRRLPKGRVYSDEALAAVRGVLGDRPRRRDLLIEFLHLIQDVYGHLSADHLAALAFEMKLGQAEVYETATFYAHFDVVKEGETPPPALTIRVCDSLSCALAGAEQLRAALEEGLDPGQVRVLRAPCMGRCDTAPVLELGHNHIDHATPEKVRAAIAAGDTHAHLPDYEGFDAYAAAGGYAVLKGLRAGGDWEAVQDSVLAAGLRGLGGAGFPSGRKWGFVRANPGPRYLAVNGDEGEPGTFKDRYYLERVPHLFLEGMLIAAWAVEAETCYIYMRDEYPAVLEILRREIAALEAAGIVAKGYIDLRRGAGAYICGEESAMIESIEGKRGLPRHRPPFVAQVGLFGRPTLVHNIETLHWVARVCREGPEVLNSIEKNGRKGLRSYSVSGRVARPGVHLLPAGSTIRDVIAAAGGMAAGHVFKAYQPGGPSSGLLPASMDDIPLDFDTLQPHGSFIGSAAVVVLSQQDSARDAALNMLRFFEDESCGQCTPCRAGCEKAVKLMQAEHWDQPLLEELCQVMADASICGLGQAAPNPIRLTMKHFAEEI”, the protein production result is reported as “failed”.

Take “MAPLLSLCMIVKNEAHQLRRCLQSVQPWVDEIIIVDTGSTDGTIAIACEFTPHVHAVAWQGDFAAARNAALAQATGEWVFYIDADEELVVTDAHWQDQLTAPGAHAINQWSLLRREQSSDRNWSEFWNVRFGRRFPDLHFAGALHEQLCYREREAVVGELQGVYLIHHNQQSQEQFLAKIRDRNIPILETMVQQGDRRLQNLVCLGDHYAACGDSDRSQAWYEQALEEIASAVEQGILPRETTWLRHLLFWVSYRAFEAKDYETAQYYLSYGLRFFDRYPPLLYVAGLFVFELGLPRGALPYFHRCLDLFEAGSYDRTEPFDRQWMTTQPAYSLGYTYMTLQERDRAIAYFQKTLKFNPDYPPAQMYLEQLLRASANQGLEHHHHHH”: the protein production result is listed as “failed”.

On to “MAPRTYASVLTTPRGPAPLALYCPEAPECPKLEAISNLSFQQITQQAGTSNDQGFEFENTYVEHRINQEIESFVDTHHQEPLRKAAAQFRAVMKQEYPDSTCFITGSYPAGVDIFSSDIDFTVKVPTLEGANPFLKLMQLRKELSCYYTIFSKAYVQKGNIPVLQLMHAETKVSIDVTIDNDTSKRNTQLLAFYSQLDTRFPLLCKAMKAWAASCGVEGASRGRLNSFSLCLMLIHYLQTVQVLLNIQEIFPELNGDIVVEDDNYMKRDLKIEILEKGAFDFNQNTSSLAVLFIGFMKYYSEFNFKWNWISIKHGNVLKKKWSKTRVPKNGMPKDCRFIVVADPLLEIPRNCAGTVRQQNYMERIQLEFREEYERILKRKTIFNLYQCNWSRKLRKEGMERDLQIMILQDELRKLRIANLPTEEEVPWGTVVDFTSPRTFSPTNQHPKVFWCSEQTTENQRRDNLWPELLRTNPYAIFENLI”, for which the protein production entry was “not failed”.

Take “MAPSHDRGRVDRALARVSHAFSILIAALTFALPGVATAGDVPTFAVDPAWPKPLPNNWILGQVGGITVDWQGHIWVIHRPRSLTDDEKGASLNPPRSKCCVSAPPVLEFDTDGNLLRSWGGLGEGYEWVGREHGIEVDERGFVWVGGNADNDNAILKFTLDGKFVAQIGKIAPSLGSNDTTQLGKPAETAIDKAANEIYVADGYGNRRVIVFDATTLAYKRHWGAYGNKPNDDKQGPYDPKAPVAQQFGNPVHCVKLANDGLVYVCDRINNRIQVFRKDGTFVKEFFFEKNTLGNGAVWDIAIWPDPKQTWLLSADGENNEIRVIRRDDGSVVGSFGRNGRNAGQFHWVHAMAIDAKGNVYTAEVDTGKRIQKFKLTSDALK”: the protein production result was “failed”.

As for “MAPVKLYMVEVIDKKEIAANERRSRENDVTGPEITHYYQVTFRLTTDDRKDLVLNIDKSSYQNIEPEMKGRLFMQGSRFVQFETDVPIDEQKLEHHHHHH”, the protein production entry was “not failed”.

With “MAPVLENRRARHDYEILETYEAGIALKGTEVKSLRAGKVDFTGSFARFEDGELYLENLYIAPYEKGSYANVDPRRKRKLLLHKHELRRLLGKVEQKGLTLVPLKIYFNERGYAKVLLGLARGKKAYEKRREDKKEAVRRALEEL”, the protein production entry is “not failed”.

For the origin of these results see a protein production outcome set (Wang et al. 2014).
